Measured values as given in the supplement of paper PMC10567573.

B1: SLC25A39 (parent)
chain: LTSDLYAPMVAGALARLGTVTVIS
B2: RIPK4 (parent)
chain: VSVNAQTLDGRTPLHLAAQRGHYR

Variants of: B1
Assay: protein stability index of a GFP-peptide fusion (GPS, HEK-293T) (PSI 1-6); higher = more stable
Settings: c terminus: a fixed tail appended
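Note: lentivirally expressed fusions sorted by FACS into six bins by GFP to DsRed ratio, PSI derived from sequencing read proportions per bin multiplied by bin number.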

Protein stability index: each site, then its substitutions
V10: H 2.45; W 2.29; N 1.96; C 3.02; K 2.15; R 1.49; T 3.25; Q 1.96; E 1.21; F 2.85; P 1.85; Y 2.63; A 3.92
L5: A 2.14; Q 1.65; G 2.8; T 1.48; K 3.21; S 2.12; H 1.34; Y 3.05; M 2.95
L17: D 2.47; V 2.22; H 2.7; F 2.95; P 1.69; I 3.23; W 4.43; K 1.75; G 3.15; Y 2.12
A15: S 3.49; F 2.6; R 2.1; P 1.97; M 4.42; T 3.55; N 1.87; E 1.39; Q 3.66; D 1.93; K 3.12
A7: H 2.38; V 1.96; N 1.97; R 3.29; K 1.61; D 1.17; P 1.87; C 2.42
L14: Y 3.67; R 1.72; G 2.76; H 1.12; K 1; E 1.91; Q 1.53; T 1.58; A 1.79
G12: P 1.23; H 2.64; R 3.52; S 1.53; Q 4.46; Y 2.21; I 3.04
S3: G 3.59; Y 2.41; A 2.75; L 3.13; H 2.4; D 2.96; P 1.35; K 1.13; I 2.51; V 3.21; T 1.38
R16: P 1.98; M 3.22; I 2.97; L 2.76; D 2.58; E 1.76; W 2.85; Q 3.11; A 2.1; N 1.5; Y 2.35; F 4.13; S 2.41
P8: I 1.62; D 3.54; C 2.52; S 3.97; T 3.06; W 2.68
V20: R 1.76; N 2.54; D 2.73; F 2.09; H 3.15; E 2.43; T 1.02; P 1.45; K 2.05; Y 3.19; I 3.37
D4: S 2.07; Q 2.88; V 3.22; Y 5.3; P 2.89
A11: N 2.3; M 2.95; K 2.39; F 3.02; P 3.19; Y 4.45; T 2.81; L 2.5
L1: H 2.01; S 1.41; I 1.96; P 1.62; K 2.83; M 2.2; A 3.53; N 2.77; C 2.18; G 2.72
M9: E 2.54; L 3.65; D 1.78; S 1.75; Y 3.86; I 2.76; G 1.6; K 1.52; T 2.35; R 1.36; P 1.5; C 1.65; A 2.21; N 1.01
A13: C 2.73; M 3.17; S 1.38; H 2.47; D 1.74; N 2.09; R 1.79; K 3.56; T 1.75; P 1.16
Y6: E 2; C 2.31; T 1.82; A 2.37; H 2.34; M 2.09; D 1.55; N 1.34; G 1.13; F 3.72; S 1.34; Q 2.01
S24: D 3.34; T 4.15; H 3.6; N 1.91; Q 1.45; K 1.61; G 3; W 3.06; I 1.56; R 2.26; P 2.21; E 2.61
G18: W 3.57; A 2.61; T 3.39; D 2.53; R 2.66; H 4.48; K 2.53
T2: C 4.26; A 3.92; W 1.61; Y 4.43; M 3.56; S 2.68; K 1.57
V22: L 3.04; T 2.04; D 1.49; Y 1.6; N 1.11; K 1.74; E 2.08; P 1.61; F 2.47; C 3.43; A 2.58; R 2.82; S 2.31
T19: D 1.76; Q 1.8; G 1.91; K 2.21
T21: W 3.97; E 2.09; R 2.12; N 2.79; F 3.5; H 2.26; M 2.7
I23: Q 2.56; N 1.98; E 2.54; D 2.3; P 1.8; S 1.95; L 2.75; Y 2.31; G 2.18; R 1.87

Variants of: B2
Assay: as above
Settings: c terminus: a fixed tail appended

Protein stability index: each site, then its substitutions
L14: S 3.83; F 3.1; N 3.92; D 3.62
A17: M 3.31; D 3.33; N 3.38; P 3.67
H15: W 2.62; A 3.79; L 3.24; Q 4.11
G10: Q 3.6; A 3.2; K 3.09; Y 2.66; H 3; M 3.12; P 3.66; E 3.59
T7: A 3.34; G 3.35; W 2.32; M 2.98
A5: K 3.69; C 3.88; S 3.37; P 3.12; I 2.19; Q 3.13; F 2.61; V 2.64
G21: E 3.58; K 3.33; D 2.86
Y23: D 4.49; F 2.98; P 4.11; W 3.07; N 4.17
H22: R 4.29; D 3.23; S 3.29; C 2.98
R20: N 2.71; D 3.62
D9: Q 2.92; R 3.31; N 3.33
V1: E 3.97; H 3.79; W 3.5; C 2.54; A 3.94; M 4.21
T12: I 3.1; E 3.58; C 2.81; L 2.89
V3: A 3.85; N 4.49; Y 2.75; K 3.6; W 2.69
P13: D 3.56; C 2.22; E 3.26
L8: W 3.11; A 3.92
S2: D 4.08; P 3.75; G 3.97; I 2.18
L16: Y 3.45; S 4.04
Q19: I 2.59; L 2.52; F 1.94; P 2.67; T 3.58
R11: M 2.77; Y 2.98; D 3.31; C 2.91; L 2.9
A18: Q 3.29; K 2.58; P 3.21; C 2.61; W 2.09
N4: K 3.51; A 3.17; F 2.06; G 3.3; T 3.04; Y 3.12; S 2.86; E 3.17; Q 3.41
R24: P 3.08; F 2.41; N 2.98; C 2.2; M 2.87
Q6: G 3.13; N 3.03; S 3.78
